Data as given in article PMC10393192, “Structure and DNA-bridging activity of the essential Rec114–Mei4 trimer interface”.

Key:
Experiment in all cases: EMSA
[1] = molecular target: Rec114(388-428) R395A/K396A;Mei4N (Saccharomyces cerevisiae;Saccharomyces cerevisiae) (UniProt P29467); conditions: EMSA: 25 mM Tris-HCl pH 7.4, 100 mM NaCl, 5 ng DNA, 20 min, room temperature; AFM: 25 mM HEPES-NaOH pH 7.4, 5 mM MgCl2, 50 mM NaCl, 10% glycerol, 30 min, RT …
[2] = molecular target: Rec114(388-428) K399A/R400A;Mei4N (Saccharomyces cerevisiae;Saccharomyces cerevisiae) (UniProt P29467); conditions: EMSA: 25 mM Tris-HCl pH 7.4, 100 mM NaCl, 5 ng DNA, 20 min, room temperature; AFM: 25 mM HEPES-NaOH pH 7.4, 5 mM MgCl2, 50 mM NaCl, 10% glycerol, 30 min, RT …
Rec114C;Mei4N = molecular target: T1, Rec114C;Mei4N (Saccharomyces cerevisiae;Saccharomyces …, UniProt P32841;P29467 375-428;1-43, |); conditions: EMSA: 25 mM Tris-HCl pH 7.4, 100 mM NaCl, 5 ng DNA, 20 min, room temperature, AFM: 25 mM HEPES-NaOH pH 7.4, 5 mM MgCl2, 50 mM NaCl, 10% glycerol, 30 min, RT …
T1 sequence 1: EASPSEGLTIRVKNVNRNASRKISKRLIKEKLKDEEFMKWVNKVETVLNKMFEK
T1 sequence 2: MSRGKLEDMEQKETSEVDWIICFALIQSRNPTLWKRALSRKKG

[3] = molecular target: Rec114(388-428);Mei4N (Saccharomyces cerevisiae;Saccharomyces cerevisiae) (UniProt P29467); conditions: EMSA: 25 mM Tris-HCl pH 7.4, 100 mM NaCl, 5 ng DNA, 20 min, room temperature; AFM: 25 mM HEPES-NaOH pH 7.4, 5 mM MgCl2, 50 mM NaCl, 10% glycerol, 30 min, RT …
[4] = molecular target: Rec114C;Mei4N-ybbR-LD650 (Saccharomyces cerevisiae;Saccharomyces cerevisiae) (UniProt P32841); conditions: C50, single experiment; EMSA: 25 mM Tris-HCl pH 7.4, 100 mM NaCl, 5 ng DNA, 20 min, room temperature; AFM: 25 mM HEPES-NaOH pH 7.4, 5 mM MgCl2, 50 mM NaCl, 10% glycerol, 30 min, RT …
[5] = molecular target: Rec114C;Mei4N-ybbR (Saccharomyces cerevisiae;Saccharomyces cerevisiae) (UniProt P32841); conditions: C50, unlabeled; EMSA: 25 mM Tris-HCl pH 7.4, 100 mM NaCl, 5 ng DNA, 20 min, room temperature; AFM: 25 mM HEPES-NaOH pH 7.4, 5 mM MgCl2, 50 mM NaCl, 10% glycerol, 30 min, RT …
[6] = molecular target: Rec114(388-428) K403A/K407A;Mei4N (Saccharomyces cerevisiae;Saccharomyces cerevisiae) (UniProt P29467); conditions: EMSA: 25 mM Tris-HCl pH 7.4, 100 mM NaCl, 5 ng DNA, 20 min, room temperature; AFM: 25 mM HEPES-NaOH pH 7.4, 5 mM MgCl2, 50 mM NaCl, 10% glycerol, 30 min, RT …
[7] = tested on: Rec114(388-428);Mei4(13-43) (Saccharomyces cerevisiae;Saccharomyces cerevisiae); conditions: EMSA: 25 mM Tris-HCl pH 7.4, 100 mM NaCl, 5 ng DNA, 20 min, room temperature; AFM: 25 mM HEPES-NaOH pH 7.4, 5 mM MgCl2, 50 mM NaCl, 10% glycerol, 30 min, RT …
[8] = tested on: Rec114(325-428);Mei4(1-90) (Saccharomyces cerevisiae;Saccharomyces cerevisiae); conditions: EMSA: 25 mM Tris-HCl pH 7.4, 100 mM NaCl, 5 ng DNA, 20 min, room temperature; AFM: 25 mM HEPES-NaOH pH 7.4, 5 mM MgCl2, 50 mM NaCl, 10% glycerol, 30 min, RT …
[9] = molecular target: Rec114(386-428);Mei4N (Saccharomyces cerevisiae;Saccharomyces cerevisiae) (UniProt P29467); conditions: EMSA: 25 mM Tris-HCl pH 7.4, 100 mM NaCl, 5 ng DNA, 20 min, room temperature; AFM: 25 mM HEPES-NaOH pH 7.4, 5 mM MgCl2, 50 mM NaCl, 10% glycerol, 30 min, RT …
[10] = molecular target: Rec114(388-428) K417A/K424A;Mei4N (Saccharomyces cerevisiae;Saccharomyces cerevisiae) (UniProt P29467); conditions: EMSA: 25 mM Tris-HCl pH 7.4, 100 mM NaCl, 5 ng DNA, 20 min, room temperature; AFM: 25 mM HEPES-NaOH pH 7.4, 5 mM MgCl2, 50 mM NaCl, 10% glycerol, 30 min, RT …
[11] = molecular target: T2, Rec114C (Saccharomyces cerevisiae) (UniProt P32841); conditions: C50, single experiment; main text ~300-400 nM; concentration as dimer; EMSA: 25 mM Tris-HCl pH 7.4, 100 mM NaCl, 5 ng DNA, 20 min, room temperature; AFM: 25 mM HEPES-NaOH pH 7.4, 5 mM MgCl2, 50 mM NaCl, 10% glycerol, 30 min, RT …
T2 sequence: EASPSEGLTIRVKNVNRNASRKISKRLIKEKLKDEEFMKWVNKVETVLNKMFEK

150-bp DNA
K half [1]: 1000 nM | K half [2]: 2000 nM | K half (Rec114C;Mei4N): 90 nM | K half [3]: 110 nM | K half [4]: 90 nM | K half [5]: 90 nM | K half [6]: 1000 nM | K half [7]: 100 nM | K half [8]: 90 nM | K half [9]: 110 nM | K half [10]: 900 nM

1000-bp DNA
K half [11]: 300 nM | K half (Rec114C;Mei4N; C50): 80 nM
